Experimental data reported in patent publication US20240279278A1, “NMU RECEPTOR 2 AGONISTS” (Boehringer Ingelheim International GmbH, priority 2023, published 2024).
Starred links: 1 amine or outer side, 2 acyl side, 3 side chain; linkers in the order of their positions; H or OH if unused. Non-standard residues stand in square brackets, D forms with d. *: point of attachment. Pipz(1-CH2CO,4-CH2CH2NH) = O=C(CN1CCN(CCN[*:1])CC1)[*:2]; C18 diacid = O=C(O)CCCCCCCCCCCCCCCCC(=O)*; γGlu = O=C(O)[C@H](CCC(=O)[*:2])N[*:1]; 4Pal = N[C@@H](Cc1ccncc1)C(=O)O; NMeL = CN[C@@H](CC(C)C)C(=O)O; Nle = CCCC[C@H](N)C(=O)O; Sar = CNCC(=O)O

B1: C18DA-gGlu4-Sar12-AEPipAc-Tyr-Phe-NMeLeu-Nle-Dbu-Pro-Arg-Gly-NH2 (peptide)
peptide: EEEEXXXXXXXXXXXXXYFLXXPRG
HELM: PEPTIDE1{[O=C(O)CCCCCCCCCCCCCCCCC(=O)[*:2]].[gGlu].[gGlu].[gGlu].[gGlu].[Sar].[Sar].[Sar].[Sar].[Sar].[Sar].[Sar].[Sar].[Sar].[Sar].[Sar].[Sar].[O=C(CN1CCN(CCN[*:1])CC1)[*:2]].Y.F.[meL].[Nle].[Dab].P.R.G.[am]}$$$$V2.0
SMILES: CCCC[C@H](NC(=O)[C@H](CC(C)C)N(C)C(=O)[C@H](Cc1ccccc1)NC(=O)[C@H](Cc1ccc(O)cc1)NC(=O)CN1CCN(CCNC(=O)CN(C)C(=O)CN(C)C(=O)CN(C)C(=O)CN(C)C(=O)CN(C)C(=O)CN(C)C(=O)CN(C)C(=O)CN(C)C(=O)CN(C)C(=O)CN(C)C(=O)CN(C)C(=O)CN(C)C(=O)CC[C@H](NC(=O)CC[C@H](NC(=O)CC[C@H](NC(=O)CC[C@H](NC(=O)CCCCCCCCCCCCCCCCC(=O)O)C(=O)O)C(=O)O)C(=O)O)C(=O)O)CC1)C(=O)N[C@@H](CCN)C(=O)N1CCC[C@H]1C(=O)N[C@@H](CCCNC(=N)N)C(=O)NCC(N)=O
B2: C18DA-gGlu3-Sar15-AEPipAc-Tyr-Phe-NMeLeu-Nle-Lys-Pro-Arg-Gly-NH2 (peptide)
peptide: EEEXXXXXXXXXXXXXXXXYFLXKPRG
HELM: PEPTIDE1{[O=C(O)CCCCCCCCCCCCCCCCC(=O)[*:2]].[gGlu].[gGlu].[gGlu].[Sar].[Sar].[Sar].[Sar].[Sar].[Sar].[Sar].[Sar].[Sar].[Sar].[Sar].[Sar].[Sar].[Sar].[Sar].[O=C(CN1CCN(CCN[*:1])CC1)[*:2]].Y.F.[meL].[Nle].K.P.R.G.[am]}$$$$V2.0
SMILES: CCCC[C@H](NC(=O)[C@H](CC(C)C)N(C)C(=O)[C@H](Cc1ccccc1)NC(=O)[C@H](Cc1ccc(O)cc1)NC(=O)CN1CCN(CCNC(=O)CN(C)C(=O)CN(C)C(=O)CN(C)C(=O)CN(C)C(=O)CN(C)C(=O)CN(C)C(=O)CN(C)C(=O)CN(C)C(=O)CN(C)C(=O)CN(C)C(=O)CN(C)C(=O)CN(C)C(=O)CN(C)C(=O)CN(C)C(=O)CN(C)C(=O)CC[C@H](NC(=O)CC[C@H](NC(=O)CC[C@H](NC(=O)CCCCCCCCCCCCCCCCC(=O)O)C(=O)O)C(=O)O)C(=O)O)CC1)C(=O)N[C@@H](CCCCN)C(=O)N1CCC[C@H]1C(=O)N[C@@H](CCCNC(=N)N)C(=O)NCC(N)=O
B3: C18DA-gGlu3-Sar15-AEPipAc-Tyr-Phe-NMeLeu-Nle-4Pal-Pro-Arg-Gly-NH2 (peptide)
peptide: {C18 diacid}-[γGlu][γGlu][γGlu][Sar][Sar][Sar][Sar][Sar][Sar][Sar][Sar][Sar][Sar][Sar][Sar][Sar][Sar][Sar][Pipz(1-CH2CO,4-CH2CH2NH)]YF[NMeL][Nle][4Pal]PRG-NH2
SMILES: CCCC[C@H](NC(=O)[C@H](CC(C)C)N(C)C(=O)[C@H](Cc1ccccc1)NC(=O)[C@H](Cc1ccc(O)cc1)NC(=O)CN1CCN(CCNC(=O)CN(C)C(=O)CN(C)C(=O)CN(C)C(=O)CN(C)C(=O)CN(C)C(=O)CN(C)C(=O)CN(C)C(=O)CN(C)C(=O)CN(C)C(=O)CN(C)C(=O)CN(C)C(=O)CN(C)C(=O)CN(C)C(=O)CN(C)C(=O)CN(C)C(=O)CC[C@H](NC(=O)CC[C@H](NC(=O)CC[C@H](NC(=O)CCCCCCCCCCCCCCCCC(=O)O)C(=O)O)C(=O)O)C(=O)O)CC1)C(=O)N[C@@H](Cc1ccncc1)C(=O)N1CCC[C@H]1C(=O)N[C@@H](CCCNC(=N)N)C(=O)NCC(N)=O
B4: C20DA-gGlu4-Sar12-AEPipAc-Tyr-Phe-NMeLeu-Nle-Orn-Pro-Arg-Gly-NH2 (peptide)
peptide: EEEEXXXXXXXXXXXXXYFLXXPRG
HELM: PEPTIDE1{[O=C(O)CCCCCCCCCCCCCCCCCCC(=O)[*:2]].[gGlu].[gGlu].[gGlu].[gGlu].[Sar].[Sar].[Sar].[Sar].[Sar].[Sar].[Sar].[Sar].[Sar].[Sar].[Sar].[Sar].[O=C(CN1CCN(CCN[*:1])CC1)[*:2]].Y.F.[meL].[Nle].[Orn].P.R.G.[am]}$$$$V2.0
SMILES: CCCC[C@H](NC(=O)[C@H](CC(C)C)N(C)C(=O)[C@H](Cc1ccccc1)NC(=O)[C@H](Cc1ccc(O)cc1)NC(=O)CN1CCN(CCNC(=O)CN(C)C(=O)CN(C)C(=O)CN(C)C(=O)CN(C)C(=O)CN(C)C(=O)CN(C)C(=O)CN(C)C(=O)CN(C)C(=O)CN(C)C(=O)CN(C)C(=O)CN(C)C(=O)CN(C)C(=O)CC[C@H](NC(=O)CC[C@H](NC(=O)CC[C@H](NC(=O)CC[C@H](NC(=O)CCCCCCCCCCCCCCCCCCC(=O)O)C(=O)O)C(=O)O)C(=O)O)C(=O)O)CC1)C(=O)N[C@@H](CCCN)C(=O)N1CCC[C@H]1C(=O)N[C@@H](CCCNC(=N)N)C(=O)NCC(N)=O
B5: C18DA-gGlu2-Sar9-AEPipAc-Tyr-Phe-NMeLeu-Nle-Orn-NMeAla-Arg-Gly-NH2 (peptide)
peptide: EEXXXXXXXXXXYFLXXARG
HELM: PEPTIDE1{[O=C(O)CCCCCCCCCCCCCCCCC(=O)[*:2]].[gGlu].[gGlu].[Sar].[Sar].[Sar].[Sar].[Sar].[Sar].[Sar].[Sar].[Sar].[O=C(CN1CCN(CCN[*:1])CC1)[*:2]].Y.F.[meL].[Nle].[Orn].[meA].R.G.[am]}$$$$V2.0
SMILES: CCCC[C@H](NC(=O)[C@H](CC(C)C)N(C)C(=O)[C@H](Cc1ccccc1)NC(=O)[C@H](Cc1ccc(O)cc1)NC(=O)CN1CCN(CCNC(=O)CN(C)C(=O)CN(C)C(=O)CN(C)C(=O)CN(C)C(=O)CN(C)C(=O)CN(C)C(=O)CN(C)C(=O)CN(C)C(=O)CN(C)C(=O)CC[C@H](NC(=O)CC[C@H](NC(=O)CCCCCCCCCCCCCCCCC(=O)O)C(=O)O)C(=O)O)CC1)C(=O)N[C@@H](CCCN)C(=O)N(C)[C@@H](C)C(=O)N[C@@H](CCCNC(=N)N)C(=O)NCC(N)=O
B6: C18DA-gGlu3-Sar12-AEPipAc-Tyr-Phe-NMeLeu-Nle-NMeArg-NMeAla-Arg-Gly-NH2 (peptide)
peptide: EEEXXXXXXXXXXXXXYFLXRARG
HELM: PEPTIDE1{[O=C(O)CCCCCCCCCCCCCCCCC(=O)[*:2]].[gGlu].[gGlu].[gGlu].[Sar].[Sar].[Sar].[Sar].[Sar].[Sar].[Sar].[Sar].[Sar].[Sar].[Sar].[Sar].[O=C(CN1CCN(CCN[*:1])CC1)[*:2]].Y.F.[meL].[Nle].[meR].[meA].R.G.[am]}$$$$V2.0
SMILES: CCCC[C@H](NC(=O)[C@H](CC(C)C)N(C)C(=O)[C@H](Cc1ccccc1)NC(=O)[C@H](Cc1ccc(O)cc1)NC(=O)CN1CCN(CCNC(=O)CN(C)C(=O)CN(C)C(=O)CN(C)C(=O)CN(C)C(=O)CN(C)C(=O)CN(C)C(=O)CN(C)C(=O)CN(C)C(=O)CN(C)C(=O)CN(C)C(=O)CN(C)C(=O)CN(C)C(=O)CC[C@H](NC(=O)CC[C@H](NC(=O)CC[C@H](NC(=O)CCCCCCCCCCCCCCCCC(=O)O)C(=O)O)C(=O)O)C(=O)O)CC1)C(=O)N(C)[C@@H](CCCNC(=N)N)C(=O)N(C)[C@@H](C)C(=O)N[C@@H](CCCNC(=N)N)C(=O)NCC(N)=O
B7: C18DA-gGlu4-Sar12-AEPipAc-Tyr-Phe-NMeLeu-Nle-Orn-Pro-Arg-Gly-NH2 (peptide)
peptide: EEEEXXXXXXXXXXXXXYFLXXPRG
HELM: PEPTIDE1{[O=C(O)CCCCCCCCCCCCCCCCC(=O)[*:2]].[gGlu].[gGlu].[gGlu].[gGlu].[Sar].[Sar].[Sar].[Sar].[Sar].[Sar].[Sar].[Sar].[Sar].[Sar].[Sar].[Sar].[O=C(CN1CCN(CCN[*:1])CC1)[*:2]].Y.F.[meL].[Nle].[Orn].P.R.G.[am]}$$$$V2.0
SMILES: CCCC[C@H](NC(=O)[C@H](CC(C)C)N(C)C(=O)[C@H](Cc1ccccc1)NC(=O)[C@H](Cc1ccc(O)cc1)NC(=O)CN1CCN(CCNC(=O)CN(C)C(=O)CN(C)C(=O)CN(C)C(=O)CN(C)C(=O)CN(C)C(=O)CN(C)C(=O)CN(C)C(=O)CN(C)C(=O)CN(C)C(=O)CN(C)C(=O)CN(C)C(=O)CN(C)C(=O)CC[C@H](NC(=O)CC[C@H](NC(=O)CC[C@H](NC(=O)CC[C@H](NC(=O)CCCCCCCCCCCCCCCCC(=O)O)C(=O)O)C(=O)O)C(=O)O)C(=O)O)CC1)C(=O)N[C@@H](CCCN)C(=O)N1CCC[C@H]1C(=O)N[C@@H](CCCNC(=N)N)C(=O)NCC(N)=O
B8: C20DA-gGlu4-Sar12-AEPipAc-Tyr-Phe-NMeLeu-Nle-Arg-Pro-Arg-Gly-NH2 (peptide)
peptide: EEEEXXXXXXXXXXXXXYFLXRPRG
HELM: PEPTIDE1{[O=C(O)CCCCCCCCCCCCCCCCCCC(=O)[*:2]].[gGlu].[gGlu].[gGlu].[gGlu].[Sar].[Sar].[Sar].[Sar].[Sar].[Sar].[Sar].[Sar].[Sar].[Sar].[Sar].[Sar].[O=C(CN1CCN(CCN[*:1])CC1)[*:2]].Y.F.[meL].[Nle].R.P.R.G.[am]}$$$$V2.0
SMILES: CCCC[C@H](NC(=O)[C@H](CC(C)C)N(C)C(=O)[C@H](Cc1ccccc1)NC(=O)[C@H](Cc1ccc(O)cc1)NC(=O)CN1CCN(CCNC(=O)CN(C)C(=O)CN(C)C(=O)CN(C)C(=O)CN(C)C(=O)CN(C)C(=O)CN(C)C(=O)CN(C)C(=O)CN(C)C(=O)CN(C)C(=O)CN(C)C(=O)CN(C)C(=O)CN(C)C(=O)CC[C@H](NC(=O)CC[C@H](NC(=O)CC[C@H](NC(=O)CC[C@H](NC(=O)CCCCCCCCCCCCCCCCCCC(=O)O)C(=O)O)C(=O)O)C(=O)O)C(=O)O)CC1)C(=O)N[C@@H](CCCNC(=N)N)C(=O)N1CCC[C@H]1C(=O)N[C@@H](CCCNC(=N)N)C(=O)NCC(N)=O

Molecular target: T1, human neuromedin U receptor 1 (human, UniProt Q9HB89 24-426)
T1 sequence (looked up): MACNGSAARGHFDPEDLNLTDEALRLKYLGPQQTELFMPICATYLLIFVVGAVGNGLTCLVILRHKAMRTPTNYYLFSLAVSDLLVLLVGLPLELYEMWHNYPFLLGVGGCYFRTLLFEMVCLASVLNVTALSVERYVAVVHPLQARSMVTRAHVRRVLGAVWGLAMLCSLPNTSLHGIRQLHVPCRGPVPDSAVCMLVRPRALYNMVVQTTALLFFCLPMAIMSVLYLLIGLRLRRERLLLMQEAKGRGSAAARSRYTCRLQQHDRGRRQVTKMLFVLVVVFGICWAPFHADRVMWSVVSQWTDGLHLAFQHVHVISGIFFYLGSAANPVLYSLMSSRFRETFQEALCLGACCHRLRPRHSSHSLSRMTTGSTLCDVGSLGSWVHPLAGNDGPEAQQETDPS
Assay: cell-based or functional assay

EC50 (hNMUR1) buffer [nM]	Binder
1300	B1
> 1000	B2
> 1000	B3
950	B4
> 1000	B5
1300	B6
870	B7
190	B8
